# Laboratory results from article PMC5409194 (Journal of Visualized Experiments : JoVE, 2017).
# B1: C-terminal fragment (residue 323-785) of vaccinia virus protein D5 (domain or fragment)
# chain: GNKLFNIAQRILDTNSVLLTERGDYIVWINNSWKFNSEEPLITKLILSIRHQLPKEYSSELLCPRKRKTVEANIRDMLVDSVETDTYPDKLPFKNGVLDLVDGMFYSGDDAKKYTCTVSTGFKFDDTKFVEDSPEMEELMNIINDIQPLTDENKKNRELYEKTLSSCLCGATKGCLTFFFGETATGKSTTKRLLKSAIGDLFVETGQTILTDVLDKGPNPFIANMHLKRSVFCSELPDFACSGSKKIRSDNIKKLTEPCVIGRPCFSNKINNRNHATIIIDTNYKPVFDRIDNALMRRIAVVRFRTHFSQPSGREAAENNDAYDKVKLLDEGLDGKIQNNRYRFAFLYLLVKWYKKYHVPIMKLYPTPEEIPDFAFYLKIGTLLVSSSVKHIPLMTDLSKKGYILYDNVVTLPLTTFQQKISKYFNSRLFGHDIESFINRHKKFANVSDEYLQYIFIEDISSP
# Target: the molecule itself
# Assay: […]
protein,measurement,value
B1,stoichiometry N,6
